PMC4638388 (Biochimica et biophysica acta, 2015)

Tests used:
[1] = target: GST-tagged 16 kDa domain of protein 4.1R (human); assay: SPR
[2] = target: T1, GST-tagged α4 repeat region of α-spectrin (human, UniProt P02549 370-475); assay: SPR
T1 sequence (looked up): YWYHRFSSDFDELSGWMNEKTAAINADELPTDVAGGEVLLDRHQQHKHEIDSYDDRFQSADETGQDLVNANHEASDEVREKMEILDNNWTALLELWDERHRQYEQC

Chain of GST-tagged 16 kDa domain of protein 4.1R (human) (P11171 whole entry, the tested form may be a part): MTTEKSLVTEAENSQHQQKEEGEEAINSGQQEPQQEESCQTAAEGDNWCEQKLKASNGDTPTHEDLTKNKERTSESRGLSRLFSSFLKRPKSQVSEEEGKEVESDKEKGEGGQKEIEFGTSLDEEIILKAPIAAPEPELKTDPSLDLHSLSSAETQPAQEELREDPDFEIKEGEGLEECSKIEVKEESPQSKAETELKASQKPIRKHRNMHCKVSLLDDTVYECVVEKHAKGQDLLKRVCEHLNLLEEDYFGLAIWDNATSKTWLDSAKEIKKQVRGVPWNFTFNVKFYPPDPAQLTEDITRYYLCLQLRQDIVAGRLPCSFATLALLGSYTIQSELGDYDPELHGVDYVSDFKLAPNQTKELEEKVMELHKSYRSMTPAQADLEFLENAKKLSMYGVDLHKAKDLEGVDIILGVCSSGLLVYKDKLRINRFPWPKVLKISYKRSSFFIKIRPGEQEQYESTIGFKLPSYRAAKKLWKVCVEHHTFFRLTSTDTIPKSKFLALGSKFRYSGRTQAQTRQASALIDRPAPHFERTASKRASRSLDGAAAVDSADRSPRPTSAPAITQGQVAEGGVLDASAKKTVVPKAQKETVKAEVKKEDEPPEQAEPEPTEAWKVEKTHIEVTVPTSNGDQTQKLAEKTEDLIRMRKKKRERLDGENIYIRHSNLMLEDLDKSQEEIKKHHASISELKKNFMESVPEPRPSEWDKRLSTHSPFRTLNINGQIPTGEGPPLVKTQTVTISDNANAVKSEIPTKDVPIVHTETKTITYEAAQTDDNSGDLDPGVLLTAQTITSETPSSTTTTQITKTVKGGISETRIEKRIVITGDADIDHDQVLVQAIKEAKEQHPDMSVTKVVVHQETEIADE

B1: SBP1-C (analyte of the surface plasmon resonance) (domain or fragment)
chain: GKRKGYYLAKKQKKEQMLEQNPEQNPEQNPEQNAQQNAQQNAQQNAQQNSQQNTQQNTQQNTQQKTQQNPQQNAQKTHNNNPQPNPQQKQLLEKPKDKLL
Ka [1]: 1.73e+07 M⁻¹ | Kd [1]: 58.5 nM | koff [1]: 0.000459 s⁻¹ | Ka [2]: 5.7e+07 ± 1.28 M⁻¹ | Kd [2]: 20.4 nM | koff [2]: 0.00031 ± 0.42 s⁻¹
